Test results reported in patent US20240261333A1 (published 2024).

What was measured:
Assay in all cases: co-IP with anti-FLAG, C-FLAG B3GNT2, mass spectrometry
RPL38 = RPL38 (human, UniProt P63173 1-70)
Description: (§1) Cells were plated in 10-cm cell culture dishes and grown to 60-80% confluency. For each condition, two biological replicates were harvested for co-IP. Cells were washed with PBS and 4 mL of lysis buffer (20 mM HEPES, 1% Triton X-100, 150 mM NaCl, 1 mM EDTA, and 10% glycerol) containing protease inhibitor cocktail was added. Cells were scraped and lysate was incubated at 4° C. under rotary agitation for 1 h. Lysate was centrifuged at 14,000×g for 10 min at 4° C. Supernatant was transferred to a new tube and an aliquot was taken as the input. […] For Western blots, 10 μg/mL Chicken Anti-FLAG (Aves labs ET-DY100) and IgY control (R&D Systems AB-101-C) antibodies were biotinylated (Thermo Fisher Scientific 90407) and added to the respective conditions. Lysates with antibodies were incubated at 4° C. under rotary agitation overnight. For each mL of lysate, 50 μL of Pierce Protein A/G Magnetic Beads (Mass spectrometry; Thermo Fisher Scientific 88803) or Pierce Streptavidin Magnetic Beads (Western blot; Thermo Fisher Scientific 88817) was washed twice with lysis buffer. Lysates with antibodies were added to the beads and incubated at 4° C. under rotary agitation for 4 h. Beads were washed with lysis buffer 3 times and resuspended in lysis buffer for storage.
(§2) Magnetic beads were resuspended in 100 mM Tris pH 7.8, reduced, alkylated and digested with trypsin at 37° ° C. overnight. This solution was subjected to solid phase extraction to concentrate the peptides and remove unwanted reagents followed by injection onto a Shimadzu HPLC with fraction collector. Eight fractions were collected and after concentration were injected on a Waters NanoAcquity HPLC equipped with a self-packed Aeris 3 μm C18 analytical column 0.075 mm by 20 cm, (Phenomenex). Peptides were eluted using standard reverse-phase gradients. The effluent from the column was analyzed using a Thermo Orbitrap Elite mass spectrometer (nanospray configuration) operated in a data dependent manner for 54 minutes. The resulting fragmentation spectra were correlated against the known database using Proteome Discover 1.4 (Thermo Fisher Scientific).

RPL23 = RPL23 (human, UniProt P62829 1-140)
Description: as §1, §2

PUF60 = target: T1, PUF60 (human, UniProt Q9UHX1 1-559, limits assumed)
T1 construct: also called NP_016868724.1
T1 sequence (looked up): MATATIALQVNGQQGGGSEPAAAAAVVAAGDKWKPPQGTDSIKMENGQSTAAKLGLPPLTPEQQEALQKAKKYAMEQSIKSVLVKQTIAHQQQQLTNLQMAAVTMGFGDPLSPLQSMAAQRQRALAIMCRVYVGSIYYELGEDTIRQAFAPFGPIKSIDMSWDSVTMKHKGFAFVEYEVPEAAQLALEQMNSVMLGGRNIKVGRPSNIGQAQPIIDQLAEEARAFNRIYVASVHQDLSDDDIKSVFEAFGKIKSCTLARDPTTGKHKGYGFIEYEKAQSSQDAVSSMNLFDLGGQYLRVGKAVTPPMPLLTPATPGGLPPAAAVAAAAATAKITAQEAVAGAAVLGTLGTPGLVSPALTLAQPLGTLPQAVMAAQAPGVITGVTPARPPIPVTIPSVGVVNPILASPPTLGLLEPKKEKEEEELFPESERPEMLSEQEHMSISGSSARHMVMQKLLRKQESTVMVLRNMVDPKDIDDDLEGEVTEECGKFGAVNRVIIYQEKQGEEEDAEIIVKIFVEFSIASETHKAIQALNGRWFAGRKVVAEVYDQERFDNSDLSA
Description: as §1, §2

DDX3X = target: T2, DDX3X (human, UniProt O00571 2-662)
T2 construct: also called NP_001180345.1 (+1)
Description: as §1, §2

P0AA25.2 = P0AA25.2 (UniProt P0AA25 2-109 = thioredoxin)
Description: as §1, §2

RPL17 = RPL17 (human, UniProt P18621 2-184)
Description: as §1, §2

HBB = target: T3, HBB (human, UniProt P68871 2-147)
T3 construct: also called NP_000509.1
Description: as §1, §2

DDX17 = target: T4, DDX17 (human, UniProt Q92841 1-729, limits assumed)
T4 construct: also called NP_001091974.1
Description: as §1, §2

JUP = target: T5, JUP (human, UniProt P14923 1-745)
T5 construct: also called NP_001339702.1
T5 sequence (looked up): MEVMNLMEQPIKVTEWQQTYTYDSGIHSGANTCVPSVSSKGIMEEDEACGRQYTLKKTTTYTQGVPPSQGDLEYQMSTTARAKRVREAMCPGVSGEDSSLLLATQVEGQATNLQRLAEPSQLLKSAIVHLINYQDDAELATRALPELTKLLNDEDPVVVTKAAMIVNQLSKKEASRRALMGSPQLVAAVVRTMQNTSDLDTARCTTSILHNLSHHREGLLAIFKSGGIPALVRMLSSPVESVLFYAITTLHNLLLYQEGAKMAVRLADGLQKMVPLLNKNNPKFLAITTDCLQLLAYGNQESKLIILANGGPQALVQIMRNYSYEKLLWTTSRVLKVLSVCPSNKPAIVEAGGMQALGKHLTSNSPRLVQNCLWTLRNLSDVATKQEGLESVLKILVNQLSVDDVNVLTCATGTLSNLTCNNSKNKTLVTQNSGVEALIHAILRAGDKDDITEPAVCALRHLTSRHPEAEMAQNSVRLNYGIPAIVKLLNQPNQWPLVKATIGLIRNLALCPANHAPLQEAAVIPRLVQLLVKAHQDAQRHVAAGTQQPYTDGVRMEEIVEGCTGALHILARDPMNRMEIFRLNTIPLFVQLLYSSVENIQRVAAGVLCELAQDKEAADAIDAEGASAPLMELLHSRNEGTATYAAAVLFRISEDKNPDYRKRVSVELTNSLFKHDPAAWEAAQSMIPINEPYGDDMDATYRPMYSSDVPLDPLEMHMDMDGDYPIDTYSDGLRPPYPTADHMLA
Description: as §1, §2

P0AA25.2, sequence (P0AA25 2-109, one chain of several): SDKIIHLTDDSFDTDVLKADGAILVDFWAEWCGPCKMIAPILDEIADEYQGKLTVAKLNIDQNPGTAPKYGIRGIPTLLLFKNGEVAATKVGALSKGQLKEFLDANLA
T4 sequence (Q92841 whole entry): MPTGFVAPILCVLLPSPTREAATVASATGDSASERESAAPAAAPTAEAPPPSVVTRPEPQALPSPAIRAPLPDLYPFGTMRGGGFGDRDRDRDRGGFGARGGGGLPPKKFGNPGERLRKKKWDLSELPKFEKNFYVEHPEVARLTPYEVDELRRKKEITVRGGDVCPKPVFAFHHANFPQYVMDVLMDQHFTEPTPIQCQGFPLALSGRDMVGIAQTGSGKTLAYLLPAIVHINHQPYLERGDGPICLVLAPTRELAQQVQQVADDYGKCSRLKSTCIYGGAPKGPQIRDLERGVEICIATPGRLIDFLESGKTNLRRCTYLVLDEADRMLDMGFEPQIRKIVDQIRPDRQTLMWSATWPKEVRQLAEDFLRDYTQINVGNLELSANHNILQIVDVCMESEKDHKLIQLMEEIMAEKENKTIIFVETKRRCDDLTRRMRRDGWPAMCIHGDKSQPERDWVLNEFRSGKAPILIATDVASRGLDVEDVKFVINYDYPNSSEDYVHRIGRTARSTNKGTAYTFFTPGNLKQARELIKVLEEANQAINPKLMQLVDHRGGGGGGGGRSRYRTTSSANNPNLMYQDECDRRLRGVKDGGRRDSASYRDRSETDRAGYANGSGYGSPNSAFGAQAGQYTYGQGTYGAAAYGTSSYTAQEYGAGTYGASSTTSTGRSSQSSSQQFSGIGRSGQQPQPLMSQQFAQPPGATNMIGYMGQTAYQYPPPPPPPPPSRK
T3 sequence (P68871 2-147 limits assumed): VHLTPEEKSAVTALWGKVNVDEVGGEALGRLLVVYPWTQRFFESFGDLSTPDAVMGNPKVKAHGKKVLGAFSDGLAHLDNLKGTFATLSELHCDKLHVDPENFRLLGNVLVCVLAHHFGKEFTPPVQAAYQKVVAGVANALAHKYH
T2 sequence (O00571 2-662 limits assumed): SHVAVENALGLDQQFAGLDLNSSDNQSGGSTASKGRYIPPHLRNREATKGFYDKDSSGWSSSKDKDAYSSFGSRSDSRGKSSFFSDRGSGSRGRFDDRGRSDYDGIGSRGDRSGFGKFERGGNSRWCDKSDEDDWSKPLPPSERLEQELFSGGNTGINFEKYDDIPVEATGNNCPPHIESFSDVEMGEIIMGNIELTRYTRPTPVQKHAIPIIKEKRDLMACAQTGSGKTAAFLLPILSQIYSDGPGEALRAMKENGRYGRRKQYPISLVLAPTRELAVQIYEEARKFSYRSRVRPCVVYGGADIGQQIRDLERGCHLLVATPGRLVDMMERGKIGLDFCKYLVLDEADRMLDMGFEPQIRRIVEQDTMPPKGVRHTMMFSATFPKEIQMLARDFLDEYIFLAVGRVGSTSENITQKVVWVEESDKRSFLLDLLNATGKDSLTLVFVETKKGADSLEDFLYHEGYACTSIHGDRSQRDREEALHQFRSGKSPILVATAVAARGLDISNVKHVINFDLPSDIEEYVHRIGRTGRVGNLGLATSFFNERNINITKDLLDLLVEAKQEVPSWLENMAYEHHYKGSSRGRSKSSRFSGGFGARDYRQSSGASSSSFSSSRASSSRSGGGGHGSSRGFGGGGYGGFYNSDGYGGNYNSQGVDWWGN

B1: C-terminal FLAG tagged B3GNT2 (enzyme, human, UniProt Q9NY97 1-397, looked up)
chain: MSVGRRRIKLLGILMMANVFIYFIMEVSKSSSQEKNGKGEVIIPKEKFWKISTPPEAYWNREQEKLNRQYNPILSMLTNQTGEAGRLSNISHLNYCEPDLRVTSVVTGFNNLPDRFKDFLLYLRCRNYSLLIDQPDKCAKKPFLLLAIKSLTPHFARRQAIRESWGQESNAGNQTVVRVFLLGQTPPEDNHPDLSDMLKFESEKHQDILMWNYRDTFFNLSLKEVLFLRWVSTSCPDTEFVFKGDDDVFVNTHHILNYLNSLSKTKAKDLFIGDVIHNAGPHRDKKLKYYIPEVVYSGLYPPYAGGGGFLYSGHLALRLYHITDQVHLYPIDDVYTGMCLQKLGLVPEKHKGFRTFDIEEKNKNNICSYVDLMLVHSRKPQEMIDIWSQLQSAHLKC
notes: FLAG-tagged ORF overexpressed in cells; pulled down from lysate with mouse anti-FLAG; also called C-FLAG B3GNT2; C-term flag; not shown: C-terminal FLAG tag
With B1 the “co-IP mass spectrometry count” value (RPL38) was 8 and the “co-IP mass spectrometry count” value (RPL23) was 6.

B2: C-terminal FLAG tagged B3GNT2 (enzyme, human, UniProt Q9NY97 1-397, looked up)
chain: MSVGRRRIKLLGILMMANVFIYFIMEVSKSSSQEKNGKGEVIIPKEKFWKISTPPEAYWNREQEKLNRQYNPILSMLTNQTGEAGRLSNISHLNYCEPDLRVTSVVTGFNNLPDRFKDFLLYLRCRNYSLLIDQPDKCAKKPFLLLAIKSLTPHFARRQAIRESWGQESNAGNQTVVRVFLLGQTPPEDNHPDLSDMLKFESEKHQDILMWNYRDTFFNLSLKEVLFLRWVSTSCPDTEFVFKGDDDVFVNTHHILNYLNSLSKTKAKDLFIGDVIHNAGPHRDKKLKYYIPEVVYSGLYPPYAGGGGFLYSGHLALRLYHITDQVHLYPIDDVYTGMCLQKLGLVPEKHKGFRTFDIEEKNKNNICSYVDLMLVHSRKPQEMIDIWSQLQSAHLKC
notes: FLAG-tagged ORF overexpressed in A375 cells; pulled down from the lysate with mouse anti-FLAG; also called C-FLAG B3GNT2; C-term flag; not shown: C-terminal FLAG tag
With B2 the “co-IP/MS count, C-term flag” value (PUF60) was 6, the “co-IP/MS count, C-term flag” value (DDX3X) was 23 and the “co-IP/MS count, C-term flag” value (P0AA25.2) was 7. For the same binder, the “co-IP/MS count, C-term flag” value (RPL17) was 0, the “co-IP/MS count, C-term flag” value (HBB) was 0 and the “co-IP/MS count, C-term flag” value (DDX17) was 30. The “co-IP/MS count, C-term flag” value (JUP) was 43.
